The record followed here is IntAct's records for PubMed 31515488.

B1: Notch homolog 2 N-terminal-like protein A (Homo sapiens), Q7Z3S9 (parent)
chain: MCVTYHNGTGYCKCPEGFLGEYCQHRDPCEKNRCQNGGTCVAQAMLGKATCRCASGFTGEDCQYSTSHPCFVSRPCLNGGTCHMLSRDTYECTCQVGFTGKECQWTDACLSHPCANGSTCTTVANQFSCKCLTGFTGQKCETDVNECDIPGHCQHGGTCLNLPGSYQCQCLQGFTGQYCDSLYVPCAPSPCVNGGTCRQTGDFTFECNCLPETVRRGTELWERDREVWNGKEHDEN
B2: Protein NOXP20 (Homo sapiens), Q8IWE2 (parent)
chain: MSDDAGDTLATGDKAEVTEMPNSDSLPEDAEVHCDSAAVSHEPTPADPRGEGHENAAVQGAGAAAIGPPVQPQDANALEPPLNGDVTEDTLAECIDSVSLEAEPRSEIPLQEQNYLAVDSPPSGGGWAGWGSWGKSLLSSASATVGHGLTAVKEKAGATLRIHGVNSGSSEGAQPNTENGVPEITDAATDQGPAESPPTSPSSASRGMLSAITNVVQNTGKSVLTGGLDALEFIGKKTMNVLAESDPGFKRTKTLMERTVSLSQMLREAKEKEKQRLAQQLTMERTAHYGMLFDEYQGLSHLEALEILSNESESKVQSFLASLDGEKLELLKNDLISIKDIFAAKELENEENQEEQGLEEKGEEFARMLTELLFELHVAATPDKLNKAMKRAHDWVEEDQTVVSVDVAKVSEEETKKEEKEEKSQDPQEDKKEEKKTKTIEEVYMSSIESLAEVTARCIEQLHKVAELILHGQEEEKPAQDQAKVLIKLTTAMCNEVASLSKKFTNSLTTVGSNKKAEVLNPMISSVLLEGCNSTTYIQDAFQLLLPVLQVSHIQTSCLKAQP
B3: Keratin, type I cuticular Ha3-II (Homo sapiens), Q14525 (parent)
chain: MPYNFCLPSLSCRTSCSSRPCVPPSCHGYTLPGACNIPANVSNCNWFCEGSFNGSEKETMQFLNDRLASYLEKVRQLERDNAELENLIRERSQQQEPLLCPSYQSYFKTIEELQQKILCSKSENARLVVQIDNAKLAADDFRTKYQTEQSLRQLVESDINSLRRILDELTLCRSDLEAQMESLKEELLSLKQNHEQEVNTLRCQLGDRLNVEVDAAPAVDLNQVLNETRNQYEALVETNRREVEQWFATQTEELNKQVVSSSEQLQSYQAEIIELRRTVNALEIELQAQHNLRYSLENTLTESEARYSSQLSQVQSLITNVESQLAEIRSDLERQNQEYQVLLDVRARLECEINTYRSLLESEDCKLPSNPCATTNACEKPIGSCVTNPCGPRSRCGPCNTFGY
B4: Radial spoke head protein 3 homolog (Homo sapiens), Q86UC2 (parent)
chain: MTVKPAKAASLARNLAKRRRTYLGGAAGRSQEPEVPCAAVLPGKPGDRNCPEFPPPDRTLGCWATDAAPAAGLCGAGSEPSIAPTSCAGNLPSRPPPLLSPLLASRNPCPWHYLHLSGSHNTLAPTCFKAKLHRKRGSQPPDMASALTDRTSRAPSTYTYTSRPRALPCQRSRYRDSLTQPDEEPMHYGNIMYDRRVIRGNTYALQTGPLLGRPDSLELQRQREARKRALARKQAQEQLRPQTPEPVEGRKHVDVQTELYLEEIADRIIEVDMECQTDAFLDRPPTPLFIPAKTGKDVATQILEGELFDFDLEVKPVLEVLVGKTIEQSLLEVMEEEELANLRASQREYEELRNSERAEVQRLEEQERRHREEKERRKKQQWEIMHKHNETSQKIAARAFAQRYLADLLPSVFGSLRDSGYFYDPIERDIEIGFLPWLMNEVEKTMEYSMVGRTVLDMLIREVVEKRLCMYEHGEDTHQSPEPEDEPGGPGAMTESLEASEFLEQSMSQTRELLLDGGYLQRTTYDRRSSQERKFMEERELLGQDEETAMRKSLGEEELS
partner: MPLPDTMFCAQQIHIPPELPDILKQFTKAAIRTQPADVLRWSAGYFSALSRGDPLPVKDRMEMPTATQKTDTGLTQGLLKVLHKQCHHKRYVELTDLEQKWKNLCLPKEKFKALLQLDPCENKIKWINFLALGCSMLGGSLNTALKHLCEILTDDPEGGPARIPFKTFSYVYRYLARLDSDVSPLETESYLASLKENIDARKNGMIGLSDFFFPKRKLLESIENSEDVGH

In one assay the parent is B1. As to conditions: with pde9a_human PDE9A.
Turning to A115T, the “effect of a mutation on the interaction” value is recorded as “with no effect”.

Variants of B1 are the subject of another assay. Conditions: with ppbi_human ALPI.
For A115T, the “effect of a mutation on the interaction” value was “with no effect”.

Variants of B1 are the subject of another assay. As to conditions: with snai1_human SNAI1, O95863.
snai1_human SNAI1, O95863, sequence (O95863 whole entry): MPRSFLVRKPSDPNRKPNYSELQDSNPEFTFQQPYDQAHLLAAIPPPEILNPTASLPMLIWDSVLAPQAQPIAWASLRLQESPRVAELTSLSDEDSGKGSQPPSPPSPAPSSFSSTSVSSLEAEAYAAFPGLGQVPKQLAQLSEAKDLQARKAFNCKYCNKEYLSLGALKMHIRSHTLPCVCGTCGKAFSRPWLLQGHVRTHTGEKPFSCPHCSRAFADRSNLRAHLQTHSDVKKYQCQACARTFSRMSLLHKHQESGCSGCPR
Take A115T: the “effect of a mutation on the interaction” value is reported as “with no effect”.

The variants in a further assay derive from B1. As to conditions: with anfb_human NPPB.
As for A115T, the “effect of a mutation on the interaction” value is reported as “with no effect”.

In a further assay the parent is B1. Conditions: with adck5_human ADCK5, Q3MIX3.
With A115T, the “effect of a mutation on the interaction” value is given as “with no effect”.

Variants of B1 are the subject of the next assay. Conditions: with catz_human CTSZ.
As to A115T, the “effect of a mutation on the interaction” value is “with no effect”.

The variants in another assay derive from B1. As to conditions: with txnd5_human TXNDC5, Q8NBS9.
Regarding A115T, the “effect of a mutation on the interaction” value was “with no effect”.

The variants in the next assay derive from B1. Conditions: with trpv6_human TRPV6, Q9H1D0.
trpv6_human TRPV6, Q9H1D0, sequence (Q9H1D0 whole entry): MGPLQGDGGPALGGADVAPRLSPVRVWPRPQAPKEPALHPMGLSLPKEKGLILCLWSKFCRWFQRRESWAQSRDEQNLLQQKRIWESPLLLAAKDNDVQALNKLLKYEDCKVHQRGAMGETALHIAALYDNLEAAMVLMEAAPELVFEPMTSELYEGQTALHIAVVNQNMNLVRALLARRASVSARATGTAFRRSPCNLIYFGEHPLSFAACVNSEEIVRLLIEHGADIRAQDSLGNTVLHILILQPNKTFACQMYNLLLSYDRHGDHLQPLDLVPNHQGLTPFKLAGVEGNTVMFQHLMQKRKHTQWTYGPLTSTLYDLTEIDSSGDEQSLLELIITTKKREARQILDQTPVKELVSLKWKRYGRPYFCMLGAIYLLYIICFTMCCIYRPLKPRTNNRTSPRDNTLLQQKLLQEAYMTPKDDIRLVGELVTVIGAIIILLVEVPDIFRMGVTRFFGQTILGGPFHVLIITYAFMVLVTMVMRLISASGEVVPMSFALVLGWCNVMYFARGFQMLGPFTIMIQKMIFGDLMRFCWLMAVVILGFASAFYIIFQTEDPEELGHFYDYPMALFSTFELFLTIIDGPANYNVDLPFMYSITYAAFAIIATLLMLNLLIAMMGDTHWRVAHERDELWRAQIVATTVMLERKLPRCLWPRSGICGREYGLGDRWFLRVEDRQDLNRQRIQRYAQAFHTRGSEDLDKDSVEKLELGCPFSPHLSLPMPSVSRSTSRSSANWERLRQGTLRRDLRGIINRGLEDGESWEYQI
For the variant A115T, the “effect of a mutation on the interaction” value is reported as “with no effect”.

The variants in the next assay derive from B1. Conditions: with ptn23_human PTPN23, Q9H3S7.
ptn23_human PTPN23, Q9H3S7, sequence (Q9H3S7 whole entry): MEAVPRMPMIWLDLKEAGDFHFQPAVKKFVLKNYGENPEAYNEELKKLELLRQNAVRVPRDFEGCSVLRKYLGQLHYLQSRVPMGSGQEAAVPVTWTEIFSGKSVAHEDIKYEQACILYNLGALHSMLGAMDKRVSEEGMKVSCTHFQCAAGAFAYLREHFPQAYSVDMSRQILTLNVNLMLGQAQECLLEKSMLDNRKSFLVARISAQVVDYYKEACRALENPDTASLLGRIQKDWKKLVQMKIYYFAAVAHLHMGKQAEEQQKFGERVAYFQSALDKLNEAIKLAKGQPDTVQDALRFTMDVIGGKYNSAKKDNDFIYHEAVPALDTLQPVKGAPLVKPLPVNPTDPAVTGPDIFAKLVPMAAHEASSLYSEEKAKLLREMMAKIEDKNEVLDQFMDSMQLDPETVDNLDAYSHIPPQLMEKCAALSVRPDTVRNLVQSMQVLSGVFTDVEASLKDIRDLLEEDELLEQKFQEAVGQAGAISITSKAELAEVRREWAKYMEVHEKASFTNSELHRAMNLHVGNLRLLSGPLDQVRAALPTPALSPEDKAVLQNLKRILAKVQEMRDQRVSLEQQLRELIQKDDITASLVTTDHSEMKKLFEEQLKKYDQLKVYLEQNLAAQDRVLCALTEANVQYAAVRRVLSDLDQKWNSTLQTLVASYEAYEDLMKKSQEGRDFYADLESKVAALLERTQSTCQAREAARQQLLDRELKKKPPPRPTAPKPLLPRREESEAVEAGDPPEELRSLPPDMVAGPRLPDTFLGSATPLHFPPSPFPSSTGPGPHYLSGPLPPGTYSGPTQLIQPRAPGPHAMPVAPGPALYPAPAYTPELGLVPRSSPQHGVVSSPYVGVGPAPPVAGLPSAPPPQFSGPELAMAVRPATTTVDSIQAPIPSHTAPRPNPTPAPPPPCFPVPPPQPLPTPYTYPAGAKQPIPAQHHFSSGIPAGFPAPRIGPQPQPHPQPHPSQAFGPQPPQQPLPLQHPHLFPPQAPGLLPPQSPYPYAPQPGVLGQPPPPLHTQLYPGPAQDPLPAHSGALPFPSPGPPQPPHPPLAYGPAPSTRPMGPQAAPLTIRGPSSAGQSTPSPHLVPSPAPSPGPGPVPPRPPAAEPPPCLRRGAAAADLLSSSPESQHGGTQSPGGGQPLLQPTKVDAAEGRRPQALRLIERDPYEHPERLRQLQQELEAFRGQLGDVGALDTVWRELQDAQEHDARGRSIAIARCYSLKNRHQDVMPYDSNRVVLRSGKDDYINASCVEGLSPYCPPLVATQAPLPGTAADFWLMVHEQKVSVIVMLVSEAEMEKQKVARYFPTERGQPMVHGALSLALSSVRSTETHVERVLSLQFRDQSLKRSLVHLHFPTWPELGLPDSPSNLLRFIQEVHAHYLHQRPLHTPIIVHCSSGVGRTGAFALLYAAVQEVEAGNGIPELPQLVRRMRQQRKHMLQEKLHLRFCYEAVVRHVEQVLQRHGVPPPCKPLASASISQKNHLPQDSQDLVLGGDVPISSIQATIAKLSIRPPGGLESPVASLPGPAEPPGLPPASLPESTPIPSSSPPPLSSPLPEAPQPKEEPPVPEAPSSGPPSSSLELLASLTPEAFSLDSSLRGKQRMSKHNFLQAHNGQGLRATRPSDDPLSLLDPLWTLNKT
Take A115T: the “effect of a mutation on the interaction” value is “with no effect”.

In another assay the parent is B1. As to conditions: with gata2_human GATA2, P23769.
gata2_human GATA2, P23769, sequence (P23769 whole entry): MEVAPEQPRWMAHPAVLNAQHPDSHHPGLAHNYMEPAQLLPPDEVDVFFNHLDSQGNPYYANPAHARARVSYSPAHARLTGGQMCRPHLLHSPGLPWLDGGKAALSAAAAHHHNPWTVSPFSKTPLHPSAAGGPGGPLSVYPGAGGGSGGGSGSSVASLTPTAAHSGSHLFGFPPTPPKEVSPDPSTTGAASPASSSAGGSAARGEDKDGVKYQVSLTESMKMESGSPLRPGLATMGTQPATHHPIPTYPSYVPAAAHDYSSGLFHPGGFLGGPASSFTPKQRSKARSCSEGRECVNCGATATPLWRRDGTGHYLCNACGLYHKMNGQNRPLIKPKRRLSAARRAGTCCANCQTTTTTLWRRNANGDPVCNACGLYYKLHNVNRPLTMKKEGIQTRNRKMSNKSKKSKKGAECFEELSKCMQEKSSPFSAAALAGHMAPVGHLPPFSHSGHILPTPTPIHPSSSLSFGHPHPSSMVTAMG
Turning to A115T, the “effect of a mutation on the interaction” value is on record as “with no effect”.

Another assay covers variants of B1. As to conditions: with hbaz_human HBZ.
For A115T, the “effect of a mutation on the interaction” value was “with no effect”.

The variants in another assay derive from B1. Conditions: with nect3_human NECTIN3, Q9NQS3.
In the case of A115T, the “effect of a mutation on the interaction” value is “with no effect”.

Variants of B1 are the subject of a further assay. Conditions: with itb2_human ITGB2, P05107.
Turning to A115T, the “effect of a mutation on the interaction” value is “with no effect”.

The variants in a further assay derive from B1. As to conditions: with cd5r1_human CDK5R1, Q15078.
On to A115T, for which the “effect of a mutation on the interaction” value is “with no effect”.

In another assay the parent is B1. Conditions: with uxt_human UXT.
Regarding A115T, the “effect of a mutation on the interaction” value is “with no effect”.

Another assay covers variants of B1. As to conditions: with yipf3_human YIPF3, Q9GZM5.
In the case of A115T, the “effect of a mutation on the interaction” value is “with no effect”.

Variants of B1 are the subject of another assay. Conditions: with thms2_human THEMIS2, Q5TEJ8.
thms2_human THEMIS2, Q5TEJ8, sequence (Q5TEJ8 whole entry): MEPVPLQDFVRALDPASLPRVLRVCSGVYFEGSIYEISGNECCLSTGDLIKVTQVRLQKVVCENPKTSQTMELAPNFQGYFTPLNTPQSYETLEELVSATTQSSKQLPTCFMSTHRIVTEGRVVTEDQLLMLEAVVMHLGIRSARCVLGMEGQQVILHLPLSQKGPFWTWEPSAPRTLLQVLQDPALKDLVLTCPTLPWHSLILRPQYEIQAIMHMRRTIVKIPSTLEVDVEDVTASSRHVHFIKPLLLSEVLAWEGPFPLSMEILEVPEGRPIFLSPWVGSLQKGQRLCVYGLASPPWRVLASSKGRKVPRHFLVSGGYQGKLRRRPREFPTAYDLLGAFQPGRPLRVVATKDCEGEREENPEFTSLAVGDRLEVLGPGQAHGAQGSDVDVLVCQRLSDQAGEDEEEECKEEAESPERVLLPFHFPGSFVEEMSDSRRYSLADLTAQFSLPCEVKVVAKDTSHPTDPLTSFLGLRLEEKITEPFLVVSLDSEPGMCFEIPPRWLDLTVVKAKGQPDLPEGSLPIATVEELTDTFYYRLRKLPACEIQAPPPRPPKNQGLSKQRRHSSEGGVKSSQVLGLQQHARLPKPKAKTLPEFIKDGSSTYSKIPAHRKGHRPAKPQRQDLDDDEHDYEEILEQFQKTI
As to A115T, the “effect of a mutation on the interaction” value is on record as “with no effect”.

The variants in a further assay derive from B1. Conditions: with bmp7_human BMP7, P18075.
Regarding A115T, the “effect of a mutation on the interaction” value was “with no effect”.

In another assay the parent is B1. As to conditions: with cxcl5_human CXCL5, P42830.
cxcl5_human CXCL5, P42830, sequence (P42830 whole entry): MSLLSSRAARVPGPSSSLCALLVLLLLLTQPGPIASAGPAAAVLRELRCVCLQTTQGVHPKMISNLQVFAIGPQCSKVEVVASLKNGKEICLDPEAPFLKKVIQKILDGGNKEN
In the case of A115T, the “effect of a mutation on the interaction” value is “with no effect”.

A further assay covers variants of B2. Conditions: with rab2a_human RAB2A.
For the variant S40L, the “effect of a mutation on the interaction” value is “with no effect”.

In the next assay the parent is B3. Conditions: with KRT79, Q5XKE5.
KRT79, Q5XKE5, sequence (Q5XKE5 whole entry): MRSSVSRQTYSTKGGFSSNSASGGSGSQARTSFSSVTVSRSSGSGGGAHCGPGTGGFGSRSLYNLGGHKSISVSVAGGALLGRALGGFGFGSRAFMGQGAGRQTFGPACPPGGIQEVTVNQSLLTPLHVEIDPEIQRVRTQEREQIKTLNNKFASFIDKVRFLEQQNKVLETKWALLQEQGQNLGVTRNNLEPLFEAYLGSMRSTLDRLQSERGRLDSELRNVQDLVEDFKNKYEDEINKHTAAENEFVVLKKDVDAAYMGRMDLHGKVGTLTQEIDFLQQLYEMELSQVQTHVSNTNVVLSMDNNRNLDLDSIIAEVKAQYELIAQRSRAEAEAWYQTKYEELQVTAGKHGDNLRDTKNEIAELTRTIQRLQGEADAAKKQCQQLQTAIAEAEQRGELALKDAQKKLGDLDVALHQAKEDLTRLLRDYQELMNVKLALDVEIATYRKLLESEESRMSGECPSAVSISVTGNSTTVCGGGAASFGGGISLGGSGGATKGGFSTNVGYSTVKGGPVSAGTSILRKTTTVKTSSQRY
On to Y294D, for which the “effect of a mutation on the interaction” value is given as “with no effect”.

A further assay covers variants of B3. Conditions: with k2c4_human KRT4, P19013.
k2c4_human KRT4, P19013, sequence (P19013 whole entry): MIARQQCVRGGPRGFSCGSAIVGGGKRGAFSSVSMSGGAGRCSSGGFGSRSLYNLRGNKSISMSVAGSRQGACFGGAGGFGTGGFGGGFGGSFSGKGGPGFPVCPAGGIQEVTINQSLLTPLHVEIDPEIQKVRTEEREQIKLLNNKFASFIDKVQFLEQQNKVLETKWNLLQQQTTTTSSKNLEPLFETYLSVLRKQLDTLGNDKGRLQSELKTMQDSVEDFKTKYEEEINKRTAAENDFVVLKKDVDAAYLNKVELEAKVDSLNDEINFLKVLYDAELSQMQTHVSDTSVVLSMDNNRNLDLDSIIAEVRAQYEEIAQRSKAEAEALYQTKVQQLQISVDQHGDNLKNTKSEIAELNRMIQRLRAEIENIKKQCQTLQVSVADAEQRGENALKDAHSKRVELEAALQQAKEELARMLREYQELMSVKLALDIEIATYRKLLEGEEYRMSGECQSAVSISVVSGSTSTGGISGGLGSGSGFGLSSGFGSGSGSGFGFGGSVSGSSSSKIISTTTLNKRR
Consider E85K, for which the “effect of a mutation on the interaction” value is given as “with no effect”.

As to I318V, the “effect of a mutation on the interaction” value is listed as “with no effect”.

On to R66H, for which the “effect of a mutation on the interaction” value is given as “disrupting interaction strength”.

As to Q223R, the “effect of a mutation on the interaction” value is listed as “with no effect”.

A further assay covers variants of B4. Conditions: with rop1l_human ROPN1L.
As for R398Q, the “effect of a mutation on the interaction” value is reported as “with no effect”.
